Assay results from patent publication US20200024330A1 (published 2020).

Columns and labels:
[1] = biological target: HIV-1 93UG077 envelope protein (Env) on pseudovirus (HIV-1 isolate 93UG077); assay: cell-based or functional assay
[2] = biological target: HIV-1 92BR020 envelope protein (Env) on pseudovirus (HIV-1 isolate 92BR020); assay: cell-based or functional assay
[3] = biological target: HIV-1 APV-13 envelope protein (Env) on pseudovirus (HIV-1 isolate APV-13); assay: cell-based or functional assay
[4] = biological target: HIV-1 APV-17 envelope protein (Env) on pseudovirus (HIV-1 isolate APV-17); assay: cell-based or functional assay
[5] = biological target: HIV-1 APV-6 envelope protein (Env) on pseudovirus (HIV-1 isolate APV-6); assay: cell-based or functional assay
[6] = biological target: HIV-1 93IN905 envelope protein (Env) on pseudovirus (HIV-1 isolate 93IN905); assay: cell-based or functional assay
[7] = biological target: HIV-1 IAVI-C18 envelope protein (Env) on pseudovirus (HIV-1 isolate IAVI-C18); assay: cell-based or functional assay
[8] = biological target: HIV-1 IAVI-C22 envelope protein (Env) on pseudovirus (HIV-1 isolate IAVI-C22); assay: cell-based or functional assay
[9] = biological target: HIV-1 IAVI-C3 envelope protein (Env) on pseudovirus (HIV-1 isolate IAVI-C3); assay: cell-based or functional assay
[10] = biological target: HIV-1 92UG024 envelope protein (Env) on pseudovirus (HIV-1 isolate 92UG024); assay: cell-based or functional assay
[11] = biological target: HIV-1 92UG005 envelope protein (Env) on pseudovirus (HIV-1 isolate 92UG005); assay: cell-based or functional assay
[12] = biological target: HIV-1 92TH021 envelope protein (Env) on pseudovirus (HIV-1 isolate 92TH021); assay: cell-based or functional assay
[13] = biological target: HIV-1 CMU02 envelope protein (Env) on pseudovirus (HIV-1 isolate CMU02); assay: cell-based or functional assay
[14] = biological target: aMLV envelope protein on pseudovirus (negative control) (aMLV); assay: cell-based or functional assay
[15] = biological target: HIV-1 94UG103 envelope protein (Env) on pseudovirus (HIV-1 isolate 94UG103); assay: cell-based or functional assay
[16] = biological target: HIV-1 92RW020 envelope protein (Env) on pseudovirus (HIV-1 isolate 92RW020); assay: cell-based or functional assay
[17] = biological target: aMLV envelope protein on pseudotyped virus (negative control) (aMLV); assay: cell-based or functional assay
[18] = biological target: T1, recombinant monomeric gp120 of HIV-1 isolate JR-CSF (HIV-1 isolate JR-CSF, UniProt P20871 32-503); assay: anti-gp120 ELISA, B cell culture supernatant on captured gp120
T1 construct: domain: gp120

Binder	IC50 (µg/mL), pseudovirus neutralization [1] [µg/mL]	IC50 (µg/mL), pseudovirus neutralization [2] [µg/mL]	IC50 (µg/mL), pseudovirus neutralization [3] [µg/mL]	IC50 (µg/mL), pseudovirus neutralization [4] [µg/mL]	IC50 (µg/mL), pseudovirus neutralization [5] [µg/mL]	IC50 (µg/mL), pseudovirus neutralization [6] [µg/mL]	IC50 (µg/mL), pseudovirus neutralization [7] [µg/mL]	IC50 (µg/mL), pseudovirus neutralization [8] [µg/mL]	IC50 (µg/mL), pseudovirus neutralization [9] [µg/mL]	IC50 (µg/mL), pseudovirus neutralization [10] [µg/mL]	IC50 (µg/mL), pseudovirus neutralization [11] [µg/mL]	IC50 (µg/mL), pseudovirus neutralization [12] [µg/mL]	IC50 (µg/mL), pseudovirus neutralization [13] [µg/mL]	IC50 (µg/mL), pseudovirus neutralization [14] [µg/mL]	IC50 (µg/mL), pseudovirus neutralization [15] [µg/mL]	IC50 (µg/mL), pseudovirus neutralization [16] [µg/mL]	IC50, pseudovirus neutralization, 1 hour Virus/Ab Incubation [17] [µg/mL]	IC50, pseudovirus neutralization, 18 hour Virus/Ab Incubation [17] [µg/mL]	ELISA OD [18] [OD]
1456_P20 (PG20) (antibody, human IgG1, kappa, V domains shown) VH: QVRLVQSGPEVKKPGSSVTVSCQASGGTFSSYAFTWVRQAPGQGLEWLGMVTPIFGEAKYSQRFEGRVTITADESTSTTSIELRGLTSEDTAIYYCARDRRAVPIATDNWLDPWGQGTLVTVSS VL: DIQLTQSPSSLSASVGDRVSITCRASQTINNYLNWYQQTPGKAPKLLIYGASNLQNGVPSRFSGSGSGTDFTLTISSLQPEDFATYYCQQSFSTPRTFGQGTRLDIKR	> 50	> 50	> 50	> 50	25.8	> 50	> 50	> 50	> 50	> 50	> 50	> 50	> 50	> 50	> 50	50	–	–	–
1460_G14 (PGG14) (antibody, V domains shown) VH: QVLLVQSGTEVKKPGSSVKVSCQASGGAFSSYAFSWVRQAPGQGLEWMGMITPVFGETKYAPRFQGRLTLTAEESLSTTYMELRSLTSDDTAFYYCTRDRRVVPMATDNWLDPWGQGTLVTVSS VL: DIQLTQSPSSLSASVGDRVTVTCRASQTIHTYLNWYQQIPGKAPKLLIYGASTLQSGVPSRFSGSGSGTDFTLTINSLQPEDFATYYCQQSYSTPRTFGQGTRLDIKR	–	–	–	–	–	–	–	–	–	–	–	–	–	–	–	–	> 50	> 50	–
1460_G14 (PGG14) (antibody, human IgG1, kappa, V domains shown) VH: QVLLVQSGTEVKKPGSSVKVSCQASGGAFSSYAFSWVRQAPGQGLEWMGMITPVFGETKYAPRFQGRLTLTAEESLSTTYMELRSLTSDDTAFYYCTRDRRVVPMATDNWLDPWGQGTLVTVSS VL: DIQLTQSPSSLSASVGDRVTVTCRASQTIHTYLNWYQQIPGKAPKLLIYGASTLQSGVPSRFSGSGSGTDFTLTINSLQPEDFATYYCQQSYSTPRTFGQGTRLDIKR	> 50	> 50	> 50	> 50	> 50	> 50	> 50	> 50	> 50	> 50	> 50	> 50	> 50	> 50	> 50	> 50	–	–	–
1456_P20 (PG20) (antibody, V domains shown, also called B cell culture plate 1456 well P20) VH: QVRLVQSGPEVKKPGSSVTVSCQASGGTFSSYAFTWVRQAPGQGLEWLGMVTPIFGEAKYSQRFEGRVTITADESTSTTSIELRGLTSEDTAIYYCARDRRAVPIATDNWLDPWGQGTLVTVSS VL: DIQLTQSPSSLSASVGDRVSITCRASQTINNYLNWYQQTPGKAPKLLIYGASNLQNGVPSRFSGSGSGTDFTLTISSLQPEDFATYYCQQSFSTPRTFGQGTRLDIK	–	–	–	–	–	–	–	–	–	–	–	–	–	–	–	–	–	–	3.78
1443_C16 (PG16) (TCN-116) (antibody, V domains shown) VH: QEQLVESGGGVVQPGGSLRLSCLASGFTFHKYGMHWVRQAPGKGLEWVALISDDGMRKYHSDSMWGRVTISRDNSKNTLYLQFSSLKVEDTAMFFCAREAGGPIWHDDVKYYDFNDGYYNYHYMDVWGKGTTVTVSS VL: QSALTQPASVSGSPGQTITISCNGTSSDVGGFDSVSWYQQSPGKAPKVMVFDVSHRPSGISNRFSGSKSGNTASLTISGLHIEDEGDYFCSSLTDRSHRIFGGGTKVTVLG	> 50	> 50	> 50	> 50	0.08	0.1	0.007	0.069	14.8	> 50	> 50	0.13	> 50	> 50	0.008	0.004	–	–	–
1460_G14 (PGG14) (antibody, V domains shown, also called B cell culture plate 1460 well G14) VH: QVLLVQSGTEVKKPGSSVKVSCQASGGAFSSYAFSWVRQAPGQGLEWMGMITPVFGETKYAPRFQGRLTLTAEESLSTTYMELRSLTSDDTAFYYCTRDRRVVPMATDNWLDPWGQGTLVTVSS VL: DIQLTQSPSSLSASVGDRVTVTCRASQTIHTYLNWYQQIPGKAPKLLIYGASTLQSGVPSRFSGSGSGTDFTLTINSLQPEDFATYYCQQSYSTPRTFGQGTRLDIK	–	–	–	–	–	–	–	–	–	–	–	–	–	–	–	–	–	–	3.49
1495_C14 (PGC14) (antibody, human IgG1, lambda, V domains shown) VH: DGHLVQSGVEVKKTGATVKISCKVSGYSFIDYYLHWVQRAPGKGLEWVGLIDPENGEARYAEKFQGRVTIIADTSIDTGYMEMRSLKSEDTAVYFCAAGAVGADSGSWFDPWGQGTLVTVSS VL: SYELTQPPSVSVSPGQTASITCSGSKLGDKYVSWYQLRPGQSPILVMYENDRRPSGIPERFSGSNSGDTATLTISGTQALDEADFYCQAWETTTTTFVFFGGGTQLTVLG	> 50	0.64	> 50	> 50	7.41	> 50	> 50	> 50	9.5	> 50	> 50	> 50	> 50	> 50	> 50	28.6	–	–	–
1495_C14 (PGC14) (antibody, V domains shown, also called B cell culture plate 1495 well C14) VH: DGHLVQSGVEVKKTGATVKISCKVSGYSFIDYYLHWVQRAPGKGLEWVGLIDPENGEARYAEKFQGRVTIIADTSIDTGYMEMRSLKSEDTAVYFCAAGAVGADSGSWFDPWGQGTLVTVSS VL: SYELTQPPSVSVSPGQTASITCSGSKLGDKYVSWYQLRPGQSPILVMYENDRRPSGIPERFSGSNSGDTATLTISGTQALDEADFYCQAWETTTTTFVFFGGGTQLTVL	–	–	–	–	–	–	–	–	–	–	–	–	–	–	–	–	–	–	3.76
1496_C09 (PG9) (TCN-109) (antibody, V domains shown) VH: QRLVESGGGVVQPGSSLRLSCAASGFDFSRQGMHWVRQAPGQGLEWVAFIKYDGSEKYHADSVWGRLSISRDNSKDTLYLQMNSLRVEDTATYFCVREAGGPDYRNGYNYYDFYDGYYNYHYMDVWGKGTTVTVSS VL: QSALTQPASVSGSPGQSITISCNGTSNDVGGYESVSWYQQHPGKAPKVVIYDVSKRPSGVSNRFSGSKSGNTASLTISGLQAEDEGDYYCKSLTSTRRRVFGTGTKLTVLG	> 50	> 50	> 50	26.4	0.09	–	0.05	–	12.9	–	> 50	–	> 50	> 50	0.17	0.06	–	–	–
